Data reported in the NTF2 design screens of Basanta et al. (2020).

Test: protease stability score; higher = more stable; yeast display proteolysis, trypsin and chymotrypsin;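 also: log10 excess protease needed over predicted unfolded state with 0 meaning unfolded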

Row | Sequence | protease stability score
1 | DEEKLHTIAKKAADIVQSGDEEKIIRLADPNAEMRIGDQELHGMDDAKRVLHEFMKRVDHVSVKTWHVQGNRIRLDVKFEVNGRDIRVELDITIENGEIDSMEFDPRARDAQKT | 0.183
2 | DEEKLKKVIDTLQKALQNGNPDEIVKVIDKTVKFKLGDETFEGQEDARKVIKRLRDQGMEFHVERQEVTGDQAKVQTVWHAGDVEMHMHVTYDVDGDKVKRVEVRWDEEAKKAVKKG | 0.562
3 | DEEKLKRIWQEIMDVWRTNNEDRMTNLFDENATVVVGDETYRGREDVNKALHEFNKRVDNINVTRLDVDGDKANLKAELTYNGRTIDITLRITLRNGRIEEMTVDPEVMKTARS | 0.71
4 | DEEKLMRNMIKKVSKLLKEGNWDEIANNADKNAKYDVGDTEVHGKEHAQEMHDRFRQNVDHAELSVTRVDVKGDKVQVHVDHSFTNNGRKHKFHLIFWASNVNGRMVIKSVQQK | 0.565
5 | DEEKLREMMKKWQKVVQEKNTDEAKKLYHPNGEWENGSERDQGVEKVVKAIKTAQEKGFEFQIREVEVKGDKATMIYDLRNGDKTVTFHVEMEVDGGRVKRVRAKVSEEAKKLLTKG | 0.511
6 | DEEKLRKDMEEAFRLVTQGNPEEFADRFRDNPRMHVGDKEYHGREEARKAITTLVKHIDRIELHHIDIQGDKAEVRYRATVNGKRADHVMRIEANNGQLQRASVDPDLVTSVLR | -0.347
7 | DEEKLRKMVETLIQAVQNGNLEKIRQMVKENVEFTLGDKTYKGQEDALKIVKHLQQVGAEAHVERQEITGDEAKVKTQWHVGDHTMEVEVVYYVRDDKVEKVEINWSEEAKKAIKAG | 1.17
8 | DEEKLRRMAERLIRAFDQGDRKRMEDNMDPNVELQVGETVFHGREQVTKALYELRKQVDHFELKSVDIKGEKVVVHVILNINGKHVEMNWVFEAHDGKVKEIKLNPDNQREAET | 2.15
9 | DEEKLVQLMDKAFKFIVNGNTEEAQKMGADNVRYEYVDKKYEGPDVAKKMAQLMQKVGVERTVKRQELKGDQATADFDYRKGDKEYRTTAEVKYEGDKIKEARVEVTDEVKEVVHQG | -0.249
10 | DEEKMDRAKEHYKAIQKGDHERARQLADPNATFVIGDKTIHGREEYADQMKKRRDHIRIEIKSVTFNEEEGRVDVKIEQVRQHNGKPKKFRQDVKFDVQGDKIHQISVTEKK | 0.189
11 | DEEKMEDFVRKLRTGDPKQMHDNVDKDATLTIGDKKWHGRERVATAIRKWLHRADHVRIDRYDIDGDHVRIDARVTFNGKNLKVVLEYRIHNGKVKSVVLKVTSTEVQRQIDKLLS | 1.37
12 | DEEKMEIVLNAFTAMATNNEEDIERLMDPNVKVTIGDTVIHGREQLQKNADRHRRSARINIKSMSAEVQGDTVRVVVNATREHNGRPQTFQLRAVAVAHNGKVKELNVEEKQ | 1.48
13 | DEEKMKEFVKNLNTGNNHRLRKMMDEDVKVVVGDKRYKGDEQAAQFWRRILEQADDIRVNDFKVSGNTAHVDVVINWNGKHIVLDVHVEIHNGKVKQIRIEVRDEEVKRAQEEMES | 1.25
14 | DEEKMLRIAKKMVDALKNGDKDKVKKLGAEGVKVHAMDEEVEGPDQLAKYAKKFKDIGVHVEYKETEYKGDTVTFHTEAEKGDAKVRFEVHYVVKGDKVQKVEVRVDKDQLTEFRKS | 0.524
15 | DEEKNDDTARKFLEVFQEGNEDDIRRLADEDVTVEIGDSTYHGREQALTAVREWSKTVDHYSIESIHADNGRAHLHAKVVVNGKTVNLDLVVDVRNGKVKKVMIDPDRLRELKK | 0.921
16 | DEEKNEEWAEQAQHLLETGDPDKFRTMIDENAKADVGDKRLHGRETIVEEIDRMTERVDHIQITRVSAKGNRVRVKMVLRVNGVNLDVVMVFNYHNGRIKSVQVEYRNREQQKRFES | 0.388
17 | DEEKNETAKQLQRIEETGNKDEVQEMLDKDADIHIGDKVVHGREEYARQVHRRRDEINVQIDEVHYKDEEGSVVVRYTAMQEVNGRPIKNSFQRVQHIDNGRVKHMHFKFSEEQERQMRG | -0.055
18 | DEEKNFREWLHKFNEANESNDEEELKHQMDKNAHVTYGDKTIHGRDTVAEHLANKNRRADNIEFRIRHVSVENGQLQFRIDWNLRHNGENDRFEIKVRADVHNGNVQLQEASVD | 0.134
19 | DEEKNKKIARSLFQVFRTGDENRAQDMADENATARVGDKSVHGKEEFRKFVQEFLRQVDHMDVQEYRVRGNRINIIAVIHHNGQRLKVVITIVLHNGRIVHMVIRYTNPSQWKRVMS | 0.597
20 | DEEKNQDHAKELAKAIVSNNEEDIERLMDPNATMLVGDKQVHGMEEARKLIRDLKKRADHIRVTDVTVSGNKIRVSFVMNVNGQNLQFVVDAQVHNGKITSMRIQARNDDIKRRLEQ | 1.28
21 | DEEKNQELLHHWLKQFSHGNTENLRKNVDKDVRVRVGDKVFNGRETAMRHWSEQVKQVDHVQINHVEVDGDSARADVVYVVNGRERRFEREATIKGDKFKEIEYRTN | -0.248
22 | DEEKNREVKRFLDVMQKGDEDKLRRNVDPNVRFHIGDKTVQGHESFVEQLKTEKQHLRLRIDIKSVRATGNDIEVTAKVEYEHNGQPQHKELQIDVKMHNGRVKTIRYTRRG | 0.224
23 | DEEKNRKQATKVARNIADGNEDEIRKLADEDARANVGDKQVHGRDHVRKLLSDFHHTADRVKLDTINVSGDKVNAKLVLDYNGRRVSVVVQAEVRNGRLKQVNIRATNPEHQKKVES | 0.239
24 | DEEKNRTAARRAAEVLRTNDPDEMSKLADKDATARIGDKHFHGKETLKEAMEELKRQVDHLRVESFRLDGDKIVITAVMSHNGKKQKIVVVAEVENGKVVDFKMDPDQVTRMQK | 0.532
25 | DEEKNTRLIKEFMEALRTGDEHQVRRLMDPNAKVVYGDTRFHGREEAAKFIVEWASRIDHIDVKDMRVNGNRASLTFVANFDGRNHDVKIDFTLQDGKFRQVNFTSN | 1.09

Row | Sequence | protease stability score
26 | DEEKQAEDFFKEQYEIFRTGDQNREKDMVDPNANVNVGEYRYHGSKDLMKLMRQLRERVDHVQVTLRSINVKNGKAFIHVEEKFKVNGRVDTDRYVIVLSNHNGKWLLVTIQRG | 0.749
27 | DEEKQAHHLLRLLQEVLNNGDEDKARKLADPNVELSVGDKEVHGREKFTKYLYQISKRSDHANMSLTRIDTKPGRIVLVFTLRLNHNGNNTHKRMRAVASVRNGQVVVKHLVDQ | 0.728
28 | DEEKQAKTALKRYKDAIKDGDEELAKRLFDKHARIEIGDKEVHGREEIARRIREMVERADHIDIKLQSMRVRGDHIRLELTMTVNINGKKEKSRFQFVMQRRGDEVYVTSMHQT | -0.003
29 | DEEKQDTWAKEFVKMLKQGNKTDARRLFDPNATLEYGDKRVHGREQAVEAQKQRSDKVDHMQVDSVSAHNGKMDIDLVLNVNGERKRQRVVANIHNGKIKYFSVQDS | -0.248
30 | DEEKQEQVLRDQNTNDPDQMERLLDENVKVDVGDEEIHGRETVVKFLRHFIDRIDHVDVRELSVRNGRFHIEVVYTFDGRRMRYILHMEVKDGHVKYQQIQATSDEDKKRLDEMES | 2.38
31 | DEEKQKEYADRFNEILKSGNEDEFRKMADEDVTAQYGDKEVHGREEVTKTMSRFLRTVDKIKVDSVEVHNGRVIIHFVVRVNGQDQRVVMEFKVHNGKIKELVMRSQ | 1.51
32 | DEEKQSTRALQMLHNIATGNEREAQKLMDEDVKLQVGDKHLHGKEQVRHRIHELLRTVDHMDVKDMHYSGDHVSVTAIARVNGQNQHVELSAHVSNGTIKDIRVRYS | 1.25
33 | DEEKRAEDFFRKLLQVMETGDEDKQRKMADPNARVIIGEKTFHGRENMAKAMKELRDRVDSIEFDLREIETEPGRIVINVVVILDHDGDKDERELNIRAKITGDTLVLEEIKDT | -0.309
34 | DEEKRAKTIVKKIHKAWTHNDERTFKNMADPNAEVRVGDQTYHGMEQWQREQAKRAQNYDHVDFDVKNVEVKGEKVDILMEFQMNDNGKNDTERRVVVVVDVNGQDRIRSVHKG | -0.256
35 | DEEKRKHAREILKVEETGNPDDLKELFDPNAKFEYGDKTFHGMTDFRQHHERVRKEMHIDIKSVSVSVHNGQAQVDVQYEHEHNGRPDSKRANRTFDIRNGRVQSATQKDDQ | -0.537
36 | DEEKRREFAKFAMNVVQTGDPREFSKMADPNAKFDIGDKVFHGREKAVKHWEEYSQRVDHIQIQDVKFQGNEIHILAQDRHNGRDRSVVWVVTVHNGRAKYVSVDDN | 0.027
37 | DEEKVAKRFLDNWVRALHHNNEKQFKKMLPPDARVEIGDKTYNGREQVVTFFAEWAKQFDHISLDLKDMRVHNGTMDIDVKVVANDNGKNEHMRVVYVIEIKGDEATFRSATHK | 1.87
38 | DEEKVAQKFAEEMNKVWEQGDPDRMAELADEDVRMKYGDKEIHGRDDVEDHLRTVFKEVDSASIDVKRVSNHNGRVDIKASITMRDNGSHSNTNIDIKAEVSGDKVKLKEQHHQ | -0.067
39 | DEEKVFQVLVKMVQYYVSGDAEKVKKLGKDDAKVKAVDVEYRGLEQVEKAVEQFKRYGVKLQLTDHKEDGDRVDAKLVLHLGGTTWEFRVTVRADGGKVDELKVEVSDEVMKRIQDG | 0.471
40 | DEEKVHKQAHDYRTALQRGDPDRAAHLIDKHARIRVGDHTVNGRTQFKKMMEQLHTRIDKIEFKDVDVQGNKVNINIVVEVNGRRVEVTVDLDVQGDRVKQAVLTFRDPDNAKQMLG | -0.111
41 | DEEKVKEIAKNFADAMRNGDPDQASKLLDPNAKIHVGEFNYKGREAANRMAKTMRDQFDHLDIKSIEVSGNSIKIEAQLHYNGQTIDIELFITVHNGHIESVTLHYRNEEDEEKLQS | 1.08
42 | DEEKVKKLLEQMVRAYVSGHAEEVKKLGKDDGELHAGDQTYHGKEQIYKVVKKFKEYGVQLQITDMKYDGDRLDVKAELHHGGTTWEFRVTVQADGGKVDRLQVDVSEEAKKTIKHG | 1
43 | DEEKVKLASEIWKAFDRNNPDRVEELIDPNARFQYGDKKYHGMEQAKNHIKKILDDANIHIKSISMTDHNGKVRAEVEFVRNHNGKPQTDRVEMSAEFTNGRVTHFEVTEVP | 0.871
44 | DEEKVKNHILEALNAMMTGDPDKVRRMVDKDARLRIGEKVFHGREEVSKAAEEFREQFDHITITDYRVEPGHARVHAVINVNGKNVEITIKATATNGKIQRIVLDPRAVERLKS | 0.926
45 | DEEKVKRLLKRVAEDYVSGDAETVRKLGKDDAELEVGNTTYHGKEQMYKVVEEFKKYGVRLQVRNAEVRGNKVTMEVDLDMGGDTWKFTVHVEADGGKADKVKIDVSEEVKKRIEHG | 0.291
46 | DEEKVKVARKFMEVVKENNEEDAHRLASENVDVVVGDKRLHGRSNLMRKLRKEREEWRFRISIKDIKVENGRVHIHFKVQRVVNGQPQTYEQRMVMVFHNGRVKSVHYRIPEEQLNRIES | 0.463
47 | DEEKVNERFFTKMKKAHEHGDPDQLRTLFDPNVKVRYGDKSITGRENVVKHIKKLLDEADSVSIQLKRVRVSGNKFSFDVVVSFNINGKHDNQRVIIVAEQHNGHARVKSVQQK | 0.949
48 | DEEKVQDHNRKLWKLMKTGDSDQLRREMPPTAHAHVGDKSWHGSEAQNAMQEQARMQVDHLEVKKVDVTGDKIHQNVVRKENGRTENRVFAFQVDNGEIKQVEIRRS | -0.146
49 | DEEKVRHQATRFFKALQTNDEDHAVKLADENVRIVIGDKTLRGREDLKDFVRKIKNQADRVELKSVEVHGNKAKLDFIVHVNGRRVKITMVIEVDNGRVSQLELNPHDVRKMEQ | 1.42
50 | DEEKVSEAHEFMQDVQNGDEKSLNDLMDKNDEVNVGDKTVHGREDFTRQFQKRRKELRLNIQSVSATRHGDSVVVHVQAQRNHNGNPEESRYVVILSKHNGRIQNVDVKEDK | 0.919
